Drawing on publication PMC8807840, this text covers fold inhibition of base editing by Ade1 for one molecule.

Test [1] deals with A3A-CBE (A3A-nCas9-2xUGI).
Test [2] concerns the target A3Bctd-CBE (A3Bctd-nCas9-2xUGI).
Test [3] addresses A3Gctd-CBE (A3Gctd-nCas9-2xUGI).

B1: Ade1 (EBV-BORF2) (natural protein)
chain: MATTSHVEHELLSKLIDELKVKANSDPEADVLAGRLLHRLKAESVTHTVAEYLEVFSDKFYDEEFFQMHRDELETRVSAFAQSPAYERIVSSGYLSALRYYDTYLYVGRSGKQESVQHFYMRLAGFCASTTCLYAGLRAALQRARPEIESDMEVFDYYFEHLTSQTVCCSTPFMRFAGVENSTLASCILTTPDLSSEWDVTQALYRHLGRYLFQRAGVGVGVTGAGQDGKHISLLMRMINSHVEYHNYGCKRPVSVAAYMEPWHSQIFKFLETKLPENHERCPGIFTGLFVPELFFKLFRDTPWSDWYLFDPKDAGDLERLYGEEFEREYYRLVTAGKFCGRVSIKSLMFSIVNCAVKAGSPFILLKEACNAHFWRDLQGEAMNAANLCAEVLQPSRKSVATCNLANICLPRCLVNAPLAVRAQRADTQGDELLLALPRLSVTLPGEGAVGDGFSLARLRDATQCATFVVACSILQGSPTYDSRDMASMGLGVQGLADVFADLGWQYTDPPSRSLNKEIFEHMYFTALCTSSLIGLHTRKIFPGFKQSKYAGGWFHWHDWAGTDLSIPREIWSRLSERIVRDGLFNSQFIALMPTSGCAQVTGCSDAFYPFYANASTKVTNKEEALRPNRSFWRHVRLDDREALNLVGGRVSCLPEALRQRYLRFQTAFDYNQEDLIQMSRDRAPFVDQSQSHSLFLREEDAARASTLANLLVRSYELGLKTIMYYCRIEKAADLGVMECKASAALSVPREEQNERSPAEQMPPRPMEPAQVAGPVDIMSKGPGEGPGGWCVPGGLEVCYKYRQLFSEDDLLETDGFTERACESCQ
As to B1, the fold inhibition of base editing by Ade1 at the FANCF site, HEK293T cells (Fig. 2e) is 1.06 fold in [1]; 5.67 fold with A3Gctd-L1B CBE chimera; 1.06 fold with A3Bctd-L7G CBE chimera; 5.2 fold in test [2]; 1.47 fold with A3Bctd-L1A CBE chimera; 0.96 fold in [3]. In addition, the fold inhibition of base editing by Ade1 at the FANCF site, HEK293T cells (Fig. 2e) came out at 1.32 fold with A3Gctd-L7B CBE chimera, 5.66 fold with A3Gctd-L1L7B CBE chimera and 3.26 fold with A3A-L1B CBE chimera.
